Molecular target: T1, GST-tagged GFA1 (GST-GFA1) (Arabidopsis, UniProt Q9LNC5 1-987)
T1 construct: GAMETOPHYTIC FACTOR 1 (GFA1), Arabidopsis, full-length cDNA in pGEX-4T-1; also called pGEX-4T-GFA1; source: E. coli BL21 (DE3), purified (glutathione-Sepharose 4B)
T1 sequence (looked up): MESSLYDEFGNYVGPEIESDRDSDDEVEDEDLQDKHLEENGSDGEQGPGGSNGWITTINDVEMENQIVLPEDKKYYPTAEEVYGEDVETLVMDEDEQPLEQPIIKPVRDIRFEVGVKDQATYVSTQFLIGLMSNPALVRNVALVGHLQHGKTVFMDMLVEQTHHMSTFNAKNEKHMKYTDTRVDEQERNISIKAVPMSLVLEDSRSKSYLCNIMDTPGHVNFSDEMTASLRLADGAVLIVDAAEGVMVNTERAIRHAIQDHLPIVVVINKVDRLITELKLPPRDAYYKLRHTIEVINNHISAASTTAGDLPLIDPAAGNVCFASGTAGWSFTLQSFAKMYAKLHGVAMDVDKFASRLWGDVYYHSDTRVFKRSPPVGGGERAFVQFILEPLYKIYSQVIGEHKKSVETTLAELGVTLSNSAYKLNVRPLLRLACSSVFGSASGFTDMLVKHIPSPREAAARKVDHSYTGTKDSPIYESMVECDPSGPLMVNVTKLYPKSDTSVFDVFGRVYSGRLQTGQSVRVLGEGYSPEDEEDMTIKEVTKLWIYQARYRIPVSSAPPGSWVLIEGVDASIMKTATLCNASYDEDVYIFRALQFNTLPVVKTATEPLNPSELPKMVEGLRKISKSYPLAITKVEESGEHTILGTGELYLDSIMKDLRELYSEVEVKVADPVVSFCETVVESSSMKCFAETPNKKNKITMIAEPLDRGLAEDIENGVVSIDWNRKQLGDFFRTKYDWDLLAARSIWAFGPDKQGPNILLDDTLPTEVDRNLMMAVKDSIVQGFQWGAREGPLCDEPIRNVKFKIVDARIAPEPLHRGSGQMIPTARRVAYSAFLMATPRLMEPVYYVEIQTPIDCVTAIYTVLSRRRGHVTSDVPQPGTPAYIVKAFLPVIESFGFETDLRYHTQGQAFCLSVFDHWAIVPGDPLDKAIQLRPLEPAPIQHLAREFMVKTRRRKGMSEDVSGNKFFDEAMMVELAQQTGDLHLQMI
Experiment: pull-down; GST or GST-GFA1 on glutathione-Sepharose 4B beads, His-RID1 added, 4 °C 1–2 h; 50mM Tris-HCl pH 7.5, 100mM NaCl; wash with 150mM NaCl, 25mM imidazole; immunoblot with anti-HIS antibody
Conditions: both partners purified

B1: hexa-histidine-tagged RID1 (His-RID1) (natural protein, Arabidopsis, UniProt F4IE66 1-717, looked up)
chain: MPSMAQGELKSFVQNSRPNPKSPTVSPFSMRQKIAEHRRSLPIASVEKRLVEEVQKNDILIIVGETGSGKTTQLPQFLYNAGFCREGKMIGITQPRRIAAVTVAKRVAEECEVQLGQKVGYSIRFDDTTSGSTRLKYMTDGLLLREALLDPHLSRYSVIIVDEAHDRSVHTDVLLALLKKIQRTRSQPVSEKTEFGNVASQVQTTTRDANGPQQNGVLKGYQGRKLSPLKLIIMSASLDARVFSEYFGGAKAVHVQGRQFPVDILYTVHPESDYVDATLVTIFQIHFEEKPGDILVFLTGQDEIESVERLVQERLQNIPEDKRKLLPLAIFSALPSEQQMKVFAPAPTGFRKVILATNIAETSITIPGIRYVIDPGFVKARSYDPSKGMESLDVVPASKAQTLQRSGRAGREGPGKSFRLYPEREFEKLEDSTKPEIKRCNLSNIILQLKALGIDDIVGFDFIDKPSRGAIIKALAELHSLGALADDGKLENPVGYQMSRLPLEPVYSKALILANQFNCLEEMLITVAVLSVESIFYDPREKREEARTSKNHFASVEGDHLTYLSVYRESDEFLEKRKAAGSGNNIDKIMKKWCKENYVNSRSLKHARDIYRQIREHVEQIGFNVSSCGNDMLAFRRCLAASFFLKAAQRQLDGTYRALESGEVVHIHPTSVLFRAKPECVIFNELMQTSKKYIKNLTIIDSLWLSELAPHHFQTAE
notes: ROOT INITIATION … 1 (RID1), Arabidopsis, At1g26370, full-length cDNA in pET-28a-c(+); also called pET-28a-RID1; source: E. coli BL21 (DE3), purified (Ni Sepharose 6 Fast Flow)
- binding result: binds
